Drawing on article PMC8151509, this text covers percent of parent (% of LAIR-1 WT binding) and Kd for six molecules.

Positions count from the first letter of the chain named. In names and notes the source's numbering stands.

Usually Kd stands for the equilibrium constant for the complex coming apart. A low value points to tighter binding.

For assay [1], the target named is C1qCLR_nc2 (wild type, devoid of the additional GPP triplets), P02745;P02747. Put plainly: SPR. Particulars: chain shown with the change; immobilized C1qCLR_nc2; parent: est. 100; read off a plot.
Chain of C1qCLR_nc2 (wild type, devoid of the additional GPP triplets), P02745;P02747 (chain, as listed by the source, chain 1 of 3): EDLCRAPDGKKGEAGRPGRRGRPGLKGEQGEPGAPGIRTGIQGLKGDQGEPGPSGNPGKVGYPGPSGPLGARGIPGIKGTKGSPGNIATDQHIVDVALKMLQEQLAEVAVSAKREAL
Chain of C1qCLR_nc2 (wild type, devoid of the additional GPP triplets), P02745;P02747 (chain, as listed by the source, chain 2 of 3): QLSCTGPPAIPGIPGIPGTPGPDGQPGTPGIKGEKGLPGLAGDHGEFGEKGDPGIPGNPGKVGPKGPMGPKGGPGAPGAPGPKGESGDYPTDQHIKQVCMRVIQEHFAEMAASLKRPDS
Chain of C1qCLR_nc2 (wild type, devoid of the additional GPP triplets), P02745;P02747 (chain, as listed by the source, chain 3 of 3): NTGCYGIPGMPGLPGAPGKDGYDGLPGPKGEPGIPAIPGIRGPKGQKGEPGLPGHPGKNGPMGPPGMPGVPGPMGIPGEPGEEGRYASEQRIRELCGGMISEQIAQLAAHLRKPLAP
Assay [2] deals with C1qstem_nc2, P02745;P02746. Put plainly: SPR. Particulars: chain shown with the change; immobilized C1qstem_nc2; parent: est. 100; read off a plot.
Chain of C1qstem_nc2, P02745;P02746 (chain, as listed by the source, chain 1 of 3): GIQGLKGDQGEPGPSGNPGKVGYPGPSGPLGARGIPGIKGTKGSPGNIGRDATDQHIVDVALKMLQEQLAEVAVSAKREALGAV
Chain of C1qstem_nc2, P02745;P02746 (chain, as listed by the source, chain 2 of 3): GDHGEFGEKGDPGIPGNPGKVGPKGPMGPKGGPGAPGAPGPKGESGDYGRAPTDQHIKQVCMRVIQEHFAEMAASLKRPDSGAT
Chain of C1qstem_nc2, P02745;P02746 (chain, as listed by the source, chain 3 of 3): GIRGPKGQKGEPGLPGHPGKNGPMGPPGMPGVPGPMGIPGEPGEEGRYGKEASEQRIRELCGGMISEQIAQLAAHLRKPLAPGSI
For assay [3], the target named is C1qCLR_nc2 (wild type, devoid of the additional GPP triplets) (UniProt P02745). The assay is described as follows: SPR; LAIR-1 Ig-like domain injected at increasing concentrations (4-128, 4-256 or 3.125-400 µM) over immobilized C1q, rC1q variants, C1qCLR_nc2 variants or C1qstem_nc2 (CM5, amine coupling); 25 °C; 50 mM Tris, 150 mM NaCl, 2 mM CaCl2, 0.05% surfactant P20, pH 7.5; KD from Req versus concentration, steady-state model. (In general: Surface plasmon resonance follows binding to a sensor surface in real time, without labels.)

The target in another assay is C1qCLR_nc2 A_R72E (UniProt P02745). Described as above.
The target in the next assay is C1qCLR_nc2 B_K65E (UniProt P02745). Described as above.
In another assay the target is C1qstem_nc2 (UniProt P02745). Described as above.

B1: LAIR-1 Ig-like domain, wild type, Q6GTX8 P107R (protein)
chain: QEEDLPRPSISAEPGTVIPLGSHVTFVCRGPVGVQTFRLERDSRSTYNDTEDVSQASPSESEARFRIDSVREGNAGLYRCIYYKPRKWSEQSDYLELLVKE
For the molecule B1, the percent of parent (% of LAIR-1 WT binding) in assay [1] was 60; in assay [2], 69.

B2: LAIR-1 Ig-like domain, wild type, Q6GTX8 E72K (protein)
chain: B1 chain with E51K, R86P
In the case of B2, the percent of parent (% of LAIR-1 WT binding) in assay [1] and in assay [2] was 21 each time.

B3: LAIR-1 Ig-like domain, wild type, Q6GTX8 I102L (protein)
chain: B1 chain with I81L, R86P
In the case of B3, the percent of parent (% of LAIR-1 WT binding) in assay [1] was 21; in assay [2], 20.

B4: LAIR-1 Ig-like domain, wild type, Q6GTX8 E111K (protein)
chain: B1 chain with R86P, E90K
Take B4: the percent of parent (% of LAIR-1 WT binding) in assay [1] came to 36; in assay [2], 34.

B5: LAIR-1 Ig-like domain, wild type, Q6GTX8 E61A (protein)
chain: B1 chain with E40A, R86P
For the molecule B5, the percent of parent (% of LAIR-1 WT binding) in assay [1] was found to be 11; in assay [2], 6.

B6: LAIR-1 Ig-like domain, wild type (domain or fragment)
chain: B1 chain with R86P
Turning to B6, the Kd in assay [3] is 179 µM; in the assay with C1qCLR_nc2 A_R72E it was 295 µM; with C1qCLR_nc2 B_K65E it was 189 µM; with C1qstem_nc2 it was 175 µM.
